Source: paper PMC2791397

Biological target: GST-Hmt1p (S. cerevisiae) (UniProt P38074)
Sequence (P38074 whole entry): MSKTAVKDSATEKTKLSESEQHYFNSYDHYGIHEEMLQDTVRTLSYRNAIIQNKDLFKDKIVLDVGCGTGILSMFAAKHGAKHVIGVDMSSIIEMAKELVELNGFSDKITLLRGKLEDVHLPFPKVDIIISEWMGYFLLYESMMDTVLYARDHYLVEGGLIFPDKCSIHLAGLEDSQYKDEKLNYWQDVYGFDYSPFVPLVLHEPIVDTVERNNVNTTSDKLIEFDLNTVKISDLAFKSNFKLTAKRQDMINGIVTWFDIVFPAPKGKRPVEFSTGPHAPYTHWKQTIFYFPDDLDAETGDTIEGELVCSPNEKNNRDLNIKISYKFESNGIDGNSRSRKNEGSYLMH

## synthetic histone H4 peptide (residues 1-18) with acetyllysine at position 8 (from UniProt P02309 2-19)
  KM of Hmt1p-catalysed methylation of the H4 peptide (3H-SAM, Hanes/Wolffe plot): 0.059 µM
